What was measured:
Assay type in all cases: cell-based
CD19-positive cells = test: B cell depletion from human whole blood (HWB), flow cytometry, CD19; settings: human whole blood, doses from 1 to 100,000 ng/ml, 24 hrs
Protocol: (§1) A flow cytometry assay was used to compare the ability of S-isomer of compound of formula A, Ublituximab (Ubx), and combinations thereof to deplete B cells from human whole blood (HWB). In this assay, 50 μl of HWB sample was treated with either S-isomer of a compound of formula A (1000 nM), UBX (100 μg/ml to 0.1 μg/ml), or UBX in combination with S-isomer of a compound of formula A at 1000 nM and incubated for 24 hrs at 37° C. and 5% CO2. 20 μl of treated sample was taken in a 1.5 ml centrifuge tube and labeled with CD45 FITC and CD19 PE or CD20 FITC antibody and incubated in the dark for 1 hour at RT. 1 ml of red blood cell (RBC) lysing solution was added, and tubes were centrifuged at 3000 rpm for 10 minutes. […] The tubes were vortexed, and 5000 events were acquired on a Guava® easyCyte™ flow cytometer and analyzed with Incyte Software.
(§2) Gated population of CD45-positive cells were further analyzed for CD19. The number of cells that were positive for CD45 and CD19 was calculated, and the data was expressed as the percentage of CD19 positive cells in the population. CD20-positive populations were gated with fluorescence positive minus unlabeled cells, and the data was expressed as the percentage of CD20-positive cells in the population. The loss of CD19/CD20 population from control was calculated and expressed as % depletion with respect to control.

CD20-positive cells = test: B cell depletion from human whole blood (HWB), flow cytometry, CD20; settings: human whole blood, 24 hrs
Protocol: as §1, §2

DB Cells = test: cell cycle assay, flow cytometry; settings: for G0/G1, percentage of the cell population / G2/M, percentage of the cell population / S, percentage of the cell population / Sub G0, percentage of the cell population: DB cells, 72 h
Protocol: (§3) A cell cycle assay reagent (Millipore) was used to determine the effect of S-isomer of a compound of formula A, UBX, and combinations thereof on the cell cycle in cancerous cells. […] The cells were transferred to microfuge tubes to receive 50 μl of cell cycle reagent and incubated for 30 minutes at RT away from light. Cells were then diluted with 300-400 μl PBS, and a minimum of 10,000 events were acquired on a Guava® easyCyte™ flow cytometer. The data was analyzed with Express Pro software and the percentage of the cell population in different cell cycle stages with respect to control was presented in histograms.

Daudi cells = test: cell cycle assay, flow cytometry; settings: for G0/G1, percentage of the cell population / G2/M, percentage of the cell population / S, percentage of the cell population / Sub G0, percentage of the cell population: 72 h
Protocol: as §3

Raji Cells = test: cell cycle assay, flow cytometry; settings: for G0/G1, percentage of the cell population / G2/M, percentage of the cell population / S, percentage of the cell population / Sub G0, percentage of the cell population: 72 h
Protocol: as §3

U266B1 cells = test: cell cycle assay, flow cytometry; settings: for G0/G1, percentage of the cell population / G2/M, percentage of the cell population / S, percentage of the cell population / Sub G0, percentage of the cell population: 72 h
Protocol: as §3

B1: UBX: monoclonal antibody that targets a specific and unique epitope on CD20, bioengineered for enhanced clinical activity and potency (antibody, V domains shown)
VH: QAYLQQSGAELVRPGASVKMSCKASGYTFTSYNMHWVKQTPRQGLEWIGGIYPGNGDTSYNQKFKGKATLTVGKSSSTAYMQLSSLTSEDSAVYFCARYDYNYAMDYWGQGTSVTVSS
VL: QIVLSQSPAILSASPGEKVTMTCRASSSVSYMHWYQQKPGSSPKPWIYATSNLASGVPARFSGSGSGTSYSFTISRVEAEDAATYYCQQWTFNPPTFGGGTRLEIK
modifications: antibody fragment
CD19-positive cells
  depletion of B-cells: 20-30%
CD20-positive cells
  reduction in CD20+ B-cells: dose-dependent reduction
DB Cells; UBX 0.001 ng/ml
  G0/G1, percentage of the cell population: 54.38
  G2/M, percentage of the cell population: 34.02
  S, percentage of the cell population: 9.45
  Sub G0, percentage of the cell population: 0.59
DB Cells; UBX 0.01 ng/ml
  G0/G1, percentage of the cell population: 54.99
  G2/M, percentage of the cell population: 34.79
  S, percentage of the cell population: 7.73
  Sub G0, percentage of the cell population: 0.73
DB Cells; UBX 0.1 ng/ml
  G0/G1, percentage of the cell population: 56.34
  G2/M, percentage of the cell population: 38.40
  S, percentage of the cell population: 12.34
  Sub G0, percentage of the cell population: 1.10
DB Cells; UBX 1 ng/ml
  G0/G1, percentage of the cell population: 51.36
  G2/M, percentage of the cell population: 40.07
  S, percentage of the cell population: 6.46
  Sub G0, percentage of the cell population: 0.52
DB Cells; UBX 10 ng/ml
  G0/G1, percentage of the cell population: 49.52
  G2/M, percentage of the cell population: 40.56
  S, percentage of the cell population: 10.07
  Sub G0, percentage of the cell population: 0.56
DB Cells; UBX 100 ng/ml
  G0/G1, percentage of the cell population: 45.98
  G2/M, percentage of the cell population: 46.55
  S, percentage of the cell population: 7.66
  Sub G0, percentage of the cell population: 0.67
DB Cells; Diffuse Large B-cell Lymphoma (DB) cells, 72 hours
  cell cycle effect: modest G2/M arrest
Daudi cells; UBX 0.001 ng/ml
  G0/G1, percentage of the cell population: 38.12
  G2/M, percentage of the cell population: 41.95
  S, percentage of the cell population: 17.90
  Sub G0, percentage of the cell population: 2.03
Daudi cells; UBX 0.01 ng/ml
  G0/G1, percentage of the cell population: 36.24
  G2/M, percentage of the cell population: 37.83
  S, percentage of the cell population: 19.15
  Sub G0, percentage of the cell population: 6.77
Daudi cells; UBX 0.1 ng/ml
  G0/G1, percentage of the cell population: 37.40
  G2/M, percentage of the cell population: 32.42
  S, percentage of the cell population: 17.06
  Sub G0, percentage of the cell population: 13.42
Daudi cells; UBX 1 ng/ml
  G0/G1, percentage of the cell population: 40.52
  G2/M, percentage of the cell population: 26.99
  S, percentage of the cell population: 17.54
  Sub G0, percentage of the cell population: 14.95
Daudi cells; UBX 10 ng/ml
  G0/G1, percentage of the cell population: 40.92
  G2/M, percentage of the cell population: 28.08
  S, percentage of the cell population: 13.23
  Sub G0, percentage of the cell population: 17.77
Daudi cells; UBX 100 ng/ml
  G0/G1, percentage of the cell population: 43.66
  G2/M, percentage of the cell population: 28.55
  S, percentage of the cell population: 9.28
  Sub G0, percentage of the cell population: 19.55
Daudi cells; 72 hours
  cell cycle effect: increased the number of Sub GO cells
Raji Cells; UBX 0.001 ng/ml
  G0/G1, percentage of the cell population: 50.52
  G2/M, percentage of the cell population: 33.66
  S, percentage of the cell population: 10.61
  Sub G0, percentage of the cell population: 4.35
Raji Cells; UBX 0.01 ng/ml
  G0/G1, percentage of the cell population: 54.54
  G2/M, percentage of the cell population: 25.08
  S, percentage of the cell population: 12.65
  Sub G0, percentage of the cell population: 5.51
Raji Cells; UBX 0.1 ng/ml
  G0/G1, percentage of the cell population: 41.11
  G2/M, percentage of the cell population: 22.00
  S, percentage of the cell population: 8.93
  Sub G0, percentage of the cell population: 23.73
Raji Cells; UBX 1 ng/ml
  G0/G1, percentage of the cell population: 39.72
  G2/M, percentage of the cell population: 15.35
  S, percentage of the cell population: 14.82
  Sub G0, percentage of the cell population: 27.32
Raji Cells; UBX 10 ng/ml
  G0/G1, percentage of the cell population: 45.01
  G2/M, percentage of the cell population: 12.90
  S, percentage of the cell population: 8.15
  Sub G0, percentage of the cell population: 31.86
Raji Cells; UBX 100 ng/ml
  G0/G1, percentage of the cell population: 22.19
  G2/M, percentage of the cell population: 33.74
  S, percentage of the cell population: 11.05
  Sub G0, percentage of the cell population: 34.78
Raji Cells; 72 hours
  cell cycle effect: increased the number of Sub GO cells
U266B1 cells; UBX 0.001 ng/ml
  G0/G1, percentage of the cell population: 60.79
  G2/M, percentage of the cell population: 30.49
  S, percentage of the cell population: 6.00
  Sub G0, percentage of the cell population: 1.34
U266B1 cells; UBX 0.01 ng/ml
  G0/G1, percentage of the cell population: 59.32
  G2/M, percentage of the cell population: 35.48
  S, percentage of the cell population: 6.57
  Sub G0, percentage of the cell population: 0.74
U266B1 cells; UBX 0.1 ng/ml
  G0/G1, percentage of the cell population: 57.53
  G2/M, percentage of the cell population: 35.64
  S, percentage of the cell population: 7.63
  Sub G0, percentage of the cell population: 1.35
U266B1 cells; UBX 1 ng/ml
  G0/G1, percentage of the cell population: 58.81
  G2/M, percentage of the cell population: 36.07
  S, percentage of the cell population: 7.07
  Sub G0, percentage of the cell population: 0.51
U266B1 cells; UBX 10 ng/ml
  G0/G1, percentage of the cell population: 56.85
  G2/M, percentage of the cell population: 37.86
  S, percentage of the cell population: 6.34
  Sub G0, percentage of the cell population: 0.78
U266B1 cells; UBX 100 ng/ml
  G0/G1, percentage of the cell population: 52.95
  G2/M, percentage of the cell population: 39.65
  S, percentage of the cell population: 7.91
  Sub G0, percentage of the cell population: 1.95
U266B1 cells; 72 hours
  cell cycle effect: modest G2/M arrest
